Measurements: PMC3272265

Columns and labels:
[1] = mating with proven fertile normal males; settings: glycan lost; control: co-caged transgenic control females
[2] = two-cell embryos after overnight incubation; settings: glycan lost; control: normal eggs
[3] = EGFP acrosome status and Alexa 568-SBTI staining; settings: glycan lost; control: normal eggs
[4] = displacement of Hoechst-labelled sperm by Acr3-EGFP sperm; settings: glycan lost; control: normal eggs

B1: ZP3: Zp3Mut (protein)
parent chain: MASSYFLFLCLLLCGGPELCNSQTLWLLPGGTPTPVGSSSPVKVECLEAELVVTVSRDLFGTGKLVQPGDLTLGSEGCQPRVSVDTDVVRFNAQLHECSSRVQMTKDALVYSTFLLHDPRPVSGLSILRTNRVEVPIECRYPRQGNVSSHPIQPTWVPFRATVSSEEKLAFSLRLMEENWNTEKSAPTFHLGEVAHLQAEVQTGSHLPLQLFVDHCVATPSPLPDPNSSPYHFIVDFHGCLVDGLSESFSAFQVPRPRPETLQFTVDVFHFANSSRNTLYITCHLKVAPANQIPDKLNKACSFNKTSQSWLPVEGDADICDCCSHGNCSNSSSSQFQIHGPRQWSKLVSRNRRHVTDEADVTVGPLIFLGKANDQTVEGWTASAQTSVALGLGLATVAFLTLAAIVLAVTRKCHSSSYLVSLPQ
no change: other: in vivo fertility (litter size) [1] | other: in vitro fertilisation rate [2] | other: induction of sperm acrosome exocytosis [3] | other: reversibility of sperm binding [4]
